Laboratory results published in PMC10015889, “Hemophilia A subjects with an intron-22 gene inversion mutation show CD4^+ T-effector responses to multiple epitopes in FVIII” (Frontiers in Immunology, 2023).

Tests used:
DR1001 = assay: Peptide-MHCII competition binding assay, DR1001; conditions: biotinylated and non-biotinylated versions of the reference peptide; read-out: Binding affinity of reference peptide (IC50), DRB1*1001
Description: (§1) Quantitative peptide-MHC competition binding assays were carried out to determine binding avidities of four 20-mer peptides spanning the F8 exon 22-23 junction region to 10 HLA-DRB1 proteins using methodology described previously ([29]). Briefly, 1-µl aliquots of serially diluted (50nM – 50μM in DMSO) non-biotinylated FVIII peptides, were added to triplicate wells of 96-well polypropylene plates. Serially diluted non-FVIII reference peptides known to bind to specific HLA-DRB1 ( Table S6 ) were added to separate wells as positive controls. The HLA-DRB1 proteins were diluted to 50 nM in 150 mM citrate-phosphate, pH 5.4, 0.75% n-octyl-beta-D-glucopyranoside, 1 mM PMSF. 50 μl of the HLA-DRB1 solution was added per well, and the plates were sealed and incubated at 37°C for 30 min to allow peptide binding to the HLA-DRB1 protein. […] Wallac enhancement solution (100 μl/well) was then added, and the plates were incubated at room temperature for 30 min and then read on a Victor 2D time-resolved fluorometer. Sigmoidal binding curves were simulated and IC50 values calculated for the FVIII peptides, based on their competition with the reference peptides for each HLA-DRB1.

HLA-DR1501 = target: T1, HLA-DR1501 (Homo sapiens, UniProt P01903+P01911); conditions: earlier study; cited from earlier work
T1 construct: Recombinant, extracellular domains of 10 HLA-DRB1 protein monomers; purchased Tetramer Core Facility, Benaroya Research Institute

HLA-DR1101 = target: T2, HLA-DR1101 (Homo sapiens, UniProt P01903+P01911, A100R/A169T/A87E/I96F/K41T/L162R/M171V/P40S/Q125H/Q178H/Q39Y/Q99D/R42S/S66Y/T262R/V115G/W38E); conditions: earlier study; cited from earlier work
T2 construct: Recombinant, extracellular domains of 10 HLA-DRB1 protein monomers; purchased Tetramer Core Facility, Benaroya Research Institute
T2 sequence (P01903 26-216 limits assumed, other chains not shown): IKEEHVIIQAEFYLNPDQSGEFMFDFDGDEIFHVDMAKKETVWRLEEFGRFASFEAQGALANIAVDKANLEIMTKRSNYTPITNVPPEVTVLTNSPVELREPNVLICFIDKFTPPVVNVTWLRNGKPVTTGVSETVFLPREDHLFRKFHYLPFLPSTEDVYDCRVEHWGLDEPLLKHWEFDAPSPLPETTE

HLA-DR0101 = target: T3, HLA-DR0101 (Homo sapiens, UniProt P01903+P01911, A100R/D57E/F55L/F60I/F76Y/I96L/L162R/M171V/P40L/Q125E/R42F/V115G/Y59C); conditions: earlier study; cited from earlier work
T3 construct: Recombinant, extracellular domains of 10 HLA-DRB1 protein monomers; purchased Tetramer Core Facility, Benaroya Research Institute

DR1104 = assay: Peptide-MHCII competition binding assay, DR1104; conditions: biotinylated and non-biotinylated versions of the reference peptide; read-out: Binding affinity of reference peptide (IC50), DRB1*1104
Description: as §1

TT 560-571: reference peptide for DRB1*1001 binding (IYQYLYAQKSPT; UniProt P04958 560-571, looked up, fragment)
IC50 (DR1001): 200 nM

R593-608: R593-608 motif of FVIII tested in earlier study (ref 20) (RFLPNPAGVQLEDPEF; UniProt P00451 612-627, looked up, fragment)
Peptide-HLA-DR binding, in words, DR1501 (HLA-DR1501): micromolar
Peptide-HLA-DR binding, in words, DR1101 (HLA-DR1101): micromolar
Peptide-HLA-DR binding, in words, DR0101 (HLA-DR0101): micromolar

VP16 34-44: reference peptide for DRB1*1104 binding (APPLYATGRLS; UniProt P06492 34-44, looked up, fragment)
IC50 (DR1104): 900 ± 100 nM
